Experimental findings from publication doi:10.1101/2022.02.16.480668 (bioRxiv, 2022) are described below.

This data set concerns the molecule itself. The data set can be described thus: negative-stain electron microscopy of filaments on vesicles.

B1: Vps60 (natural protein)
chain: MNRIFGYGNKKSHDQLLQESNQSMNQAQQSLSNRISQLDTQIAQLNFQLQNIQKNLQRSNNKQPSLRKQALKILNKRKQLENMKDSLDSQSWSMTQAQLTNDNLQNTMITINALKQTNNAMKAQYGKINIDKLQDMQDEMLDLIEQGDELQEVLAMNNNSGELDDISDAELDAELDALAQEDFTLPTSENSLGNDMPSYLLGANAPPAFIDEEPNLDTEDKNKALESAQ
modifications: Atto-565 (TFP ester labelling) where fluorescence was read; labeled protein mixed 1:1 with unlabeled protein
Take B1: the binding result was “binds”.
